Experimental data reported in patent US20030229005.

T1: Dnp-GPVNFRVC(Me)-NH2
T1 chain: GPVNFRVX

B1: collagenase 1 (protein)
chain: FVLTEGNPRWEQTHLTYRIENYTPDLPRADVDHAIEKAFQLWSNVTPLTFTKVSEGQADIMISFVRGDHRDNSPFDGPGGNLAHAFQPGPGIGGDAHFDEDERWTNNFREYNLHRVAAHELGHSLGLSHSTDIGALMYPSYTFSGDVQLAQDDIDGIQAIYGRSQNPVQPIGPQTPKACDSKLTFDAITTIRGEVMFFKDRFYMRTNPFYPEVELNFISVFWPQLPNGLEAAYEFADRDEVRFFKGNKYWAVQGQNVLHGYPKDIYSSFGFPRTVKHIDAALSEENTGKTYFFVANKYWRYDEYKRSMDPGYPKMIAHDFPGIGHKVDAVFMKDGFFYFFHGTRQYKFDPKTKRILTLQKANSWFNCRKN
B2: human Gelatinase-A (protein)
chain: YNFFPRKPKWDKNQITYRIIGYTPDLDPETVDDAFARAFQVWSDVTPLRFSRIHDGEADIMINFGRWEHGDGYPFDGKDGLLAHAFAPGTGVGGDSHFDDDELWTLGEGQVVRVKYGNADGEYCKFPFLFNGKEYNSCTDTGRSDGFLWCSTTYNFEKDGKYGFCPHEALFTMGGNAEGQPCKFPFRFQGTSYDSCTTEGRTDGYRWCGTTEDYDRDKKYGFCPETAMSTVGGNSEGAPCVFPFTFLGNKYESCTSAGRSDGKMWCATTANYDDDRKWGFCPDQGYSLFLVAAHEFGHAMGLEHSQDPGALMAPIYTYTKNFRLSQDDIKGIQELYGASPDIDLGTGPTPTLGPVTPEICKQDIVFDGIAQIRGEIFFFKDRFIWRTVTPRDKPMGPLLVATFWPELPEKIDAVYEAPQEEKAVFFAGNEYWIYSASTLERGYPKPLTSLGLPPDVQRVDAAFNWSKNKKTYIFAGDKFWRYNEVKKKMDPGFPKLIADAWNAIPDNLDAVVDLQGGGHSYFFKGAYYLKLENQSLKSVKFGSIKSDWLGC

What was measured:
[1] = biological target: type IV collagen, P08572
Sequence of type IV collagen, P08572 (P08572 26-1712, chain 1 of 2): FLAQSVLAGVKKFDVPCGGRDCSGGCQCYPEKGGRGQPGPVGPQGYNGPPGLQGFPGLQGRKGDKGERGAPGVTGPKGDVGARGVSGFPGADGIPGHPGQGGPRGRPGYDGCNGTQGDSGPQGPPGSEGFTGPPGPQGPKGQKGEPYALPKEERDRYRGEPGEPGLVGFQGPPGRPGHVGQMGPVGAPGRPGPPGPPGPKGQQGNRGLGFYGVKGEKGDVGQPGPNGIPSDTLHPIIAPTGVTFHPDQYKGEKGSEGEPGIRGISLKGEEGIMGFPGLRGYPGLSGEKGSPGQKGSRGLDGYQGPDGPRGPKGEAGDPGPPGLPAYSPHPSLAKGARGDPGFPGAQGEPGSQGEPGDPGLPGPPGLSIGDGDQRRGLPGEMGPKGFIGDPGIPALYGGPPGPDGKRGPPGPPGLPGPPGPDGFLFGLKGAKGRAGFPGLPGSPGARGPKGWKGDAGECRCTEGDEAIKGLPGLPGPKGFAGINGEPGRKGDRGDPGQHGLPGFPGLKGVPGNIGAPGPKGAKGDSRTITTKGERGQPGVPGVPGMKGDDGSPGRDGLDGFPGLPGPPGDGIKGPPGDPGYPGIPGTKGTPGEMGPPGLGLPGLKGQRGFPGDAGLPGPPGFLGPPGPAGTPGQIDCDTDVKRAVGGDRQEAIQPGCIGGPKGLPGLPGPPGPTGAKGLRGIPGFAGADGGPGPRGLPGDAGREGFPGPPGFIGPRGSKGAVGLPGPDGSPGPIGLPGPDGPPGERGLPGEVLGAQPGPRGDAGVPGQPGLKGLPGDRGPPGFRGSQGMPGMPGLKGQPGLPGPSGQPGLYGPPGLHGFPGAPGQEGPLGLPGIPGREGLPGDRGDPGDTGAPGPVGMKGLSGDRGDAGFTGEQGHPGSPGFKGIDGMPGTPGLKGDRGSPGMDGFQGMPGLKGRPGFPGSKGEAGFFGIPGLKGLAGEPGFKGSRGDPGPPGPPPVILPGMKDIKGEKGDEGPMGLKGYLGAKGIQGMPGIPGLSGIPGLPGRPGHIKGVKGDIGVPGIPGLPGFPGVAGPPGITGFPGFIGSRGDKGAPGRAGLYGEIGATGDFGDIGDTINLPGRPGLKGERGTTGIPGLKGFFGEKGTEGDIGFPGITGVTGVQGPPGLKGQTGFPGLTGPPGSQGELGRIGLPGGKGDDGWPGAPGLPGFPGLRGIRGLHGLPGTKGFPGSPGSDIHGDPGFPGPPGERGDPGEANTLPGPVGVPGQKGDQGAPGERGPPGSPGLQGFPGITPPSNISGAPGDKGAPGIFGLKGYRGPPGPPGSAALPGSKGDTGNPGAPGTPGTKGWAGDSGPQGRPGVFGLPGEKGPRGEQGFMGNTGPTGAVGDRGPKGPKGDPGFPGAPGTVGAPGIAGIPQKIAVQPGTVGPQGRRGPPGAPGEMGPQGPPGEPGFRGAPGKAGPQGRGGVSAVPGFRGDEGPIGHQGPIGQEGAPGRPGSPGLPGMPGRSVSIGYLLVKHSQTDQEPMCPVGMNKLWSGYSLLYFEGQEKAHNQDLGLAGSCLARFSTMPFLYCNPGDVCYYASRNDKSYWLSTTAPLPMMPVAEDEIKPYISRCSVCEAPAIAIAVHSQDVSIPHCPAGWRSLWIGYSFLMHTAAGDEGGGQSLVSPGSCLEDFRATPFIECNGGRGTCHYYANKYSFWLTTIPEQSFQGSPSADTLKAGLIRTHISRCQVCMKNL
Sequence of type IV collagen, P08572 (chain, as listed by the source, chain 2 of 2): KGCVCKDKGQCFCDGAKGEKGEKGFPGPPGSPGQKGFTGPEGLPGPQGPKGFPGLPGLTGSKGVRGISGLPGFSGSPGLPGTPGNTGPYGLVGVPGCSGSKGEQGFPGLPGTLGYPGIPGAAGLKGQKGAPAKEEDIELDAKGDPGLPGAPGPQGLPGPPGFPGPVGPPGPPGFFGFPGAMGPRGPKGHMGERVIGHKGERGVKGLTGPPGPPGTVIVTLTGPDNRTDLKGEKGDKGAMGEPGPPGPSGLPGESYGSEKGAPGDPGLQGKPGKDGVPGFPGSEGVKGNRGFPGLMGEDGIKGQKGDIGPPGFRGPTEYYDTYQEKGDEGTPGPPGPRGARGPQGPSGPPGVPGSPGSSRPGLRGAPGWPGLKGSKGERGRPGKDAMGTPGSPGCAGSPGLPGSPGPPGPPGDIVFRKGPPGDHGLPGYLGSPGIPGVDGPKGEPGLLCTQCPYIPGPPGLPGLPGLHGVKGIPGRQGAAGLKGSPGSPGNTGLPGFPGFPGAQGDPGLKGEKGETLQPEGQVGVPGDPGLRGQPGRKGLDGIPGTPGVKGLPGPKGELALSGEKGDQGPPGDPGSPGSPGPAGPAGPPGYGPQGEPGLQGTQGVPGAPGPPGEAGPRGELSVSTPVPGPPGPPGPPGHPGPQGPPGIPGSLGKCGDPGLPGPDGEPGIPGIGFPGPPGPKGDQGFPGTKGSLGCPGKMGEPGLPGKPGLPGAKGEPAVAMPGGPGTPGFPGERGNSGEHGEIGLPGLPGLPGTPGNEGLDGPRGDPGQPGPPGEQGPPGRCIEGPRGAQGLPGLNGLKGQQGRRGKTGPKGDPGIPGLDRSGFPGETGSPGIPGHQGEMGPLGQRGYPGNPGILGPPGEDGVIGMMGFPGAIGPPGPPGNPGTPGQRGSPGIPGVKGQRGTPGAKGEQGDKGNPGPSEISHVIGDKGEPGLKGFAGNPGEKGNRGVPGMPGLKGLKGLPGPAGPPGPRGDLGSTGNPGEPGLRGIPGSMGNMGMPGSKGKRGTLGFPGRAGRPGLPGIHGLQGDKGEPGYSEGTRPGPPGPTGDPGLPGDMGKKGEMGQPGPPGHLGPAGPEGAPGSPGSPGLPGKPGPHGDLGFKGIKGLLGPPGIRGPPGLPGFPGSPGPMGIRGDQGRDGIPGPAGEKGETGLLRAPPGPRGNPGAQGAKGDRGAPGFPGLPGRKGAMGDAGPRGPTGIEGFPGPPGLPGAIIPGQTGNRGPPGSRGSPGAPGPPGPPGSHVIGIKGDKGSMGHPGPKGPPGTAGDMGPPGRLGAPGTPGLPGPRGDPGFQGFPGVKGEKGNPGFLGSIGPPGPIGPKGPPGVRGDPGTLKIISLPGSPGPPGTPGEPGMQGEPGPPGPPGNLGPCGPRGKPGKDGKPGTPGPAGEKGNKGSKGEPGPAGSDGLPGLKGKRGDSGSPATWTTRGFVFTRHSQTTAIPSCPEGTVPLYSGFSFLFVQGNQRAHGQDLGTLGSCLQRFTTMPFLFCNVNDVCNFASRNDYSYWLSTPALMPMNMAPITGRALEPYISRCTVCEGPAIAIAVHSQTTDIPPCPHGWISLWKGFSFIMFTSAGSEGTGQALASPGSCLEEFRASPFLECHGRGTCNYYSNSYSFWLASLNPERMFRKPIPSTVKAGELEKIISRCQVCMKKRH

[2] = biological target: T1, Dnp-GPVNFRVC(Me)-NH2

| Protein | cleavage seen on a gel [1] | Selectivity v. Coll-3, substrate 5 uM [2] [unitless] |
| --- | --- | --- |
| B1 | Both collagenase 1 and gelatinase B processed type IV collagen under the conditions used in our experiments | – |
| B2 | No detectable cleavage was observed by gelatinase A in an earlier experiment | 88 |
